Source: US8394765B2, “Methods of treating obesity with two different anti-obesity agents” (Amylin Pharmaceuticals LLC, priority 2004, dated 2013)

Tests used:
[1] = DIO rat 14-day mini-pump study of leptin and amylin: food intake, body weight, body composition (Example 1); format: in vivo; settings: DIO rats, 14 days s.c. osmotic mini-pump, leptin 500 μg/kg/day, amylin 100 μg/kg/day
Description: Diet-induced obesity (DIO) in the in the Sprague-Dawley rat is a valuable model for the study of obesity and regulation of energy homeostasis. These rats were developed from a line of (Crl:CD®(SD)BR) rats that are prone to become obese on a diet relatively high in fat and energy. See, for example, Levin (1994) Am. J. Physiol. 267:R527-R535, Levin et al. (1997) Am. J. Physiol. 273:R725-R730. DIO male rats were obtained from Charles River Laboratories, Inc. (Wilmington, Mass.). The rats were housed individually in shoebox cages at 22° C. in a 12/12-hour light dark cycle. Rats were maintained ad-libitum on a moderately high fat diet (32% kcal from fat; Research Diets D1226B) for 6-7 weeks prior to drug treatment. At the end of the fattening period (prior to drug administration), the animals typically achieve a mean body weight of about 500 g.
The DIO animals were divided into four treatment groups. Each group was implanted with subcutaneous osmotic mini-pumps (DURECT Corp., Cupertino, Calif.) designed to deliver vehicle, leptin (500 μg/kg/day), amylin (100 μg/kg/day) or leptin (500 μg/kg/day)+amylin (100 μg/kg/day) for a 14 day period. […] Food intake and body weight were recorded daily. Body composition was measured prior to and after drug treatment using NMR (Echo Medical Systems, Houston, Tex.). […]

[2] = Leptin effect on body weight in normal HSD versus DIO prone rats (Example 3); format: in vivo, rat; settings: FIG. 9
Description: Normal, lean HSD rats were divided into two treatment groups. Each group was implanted with subcutaneous osmotic mini-pumps (DURECT Corp., Cupertino, Calif.) designed to deliver either vehicle or leptin (500 μg/kg/day) for a 14 day period and body weight was recorded weekly. […] The DIO prone animals described herein appear resistant to the weight reducing effect of leptin.

[3] = Pair-feeding experiment in DIO rats, amylin+leptin (Example 2); format: in vivo, rat; settings: two weeks, leptin 500 μg/kg/day with intake restricted to amount consumed by amylin-treated group, FIG. 7
Description: Amylin is known to have an anorectic effect on a recipient. In order to examine the effect of amylin+leptin in the context of an anorectic effect of amylin, a pair-feeding experiment was performed. DIO rats and drug treatment groups were established as described above. DIO rats in the vehicle, amylin, and amylin+leptin treatment groups had ad libitum access to food, while intake in the pair-fed leptin treatment was restricted to the amount consumed by the amylin-treated group. Body weight was recorded daily for the two weeks of treatment. […] The combination of amylin+leptin results in a decrease of about 12% in body weight relative to vehicle control.

[4] = In-bred DIO (Levin) rats, amylin and leptin, body weight and NMR body composition (Example 2); format: in vivo, rat; settings: two weeks, leptin 500 μg/kg/day, amylin 100 μg/kg/day, FIG. 6A
Description: They were housed individually in shoebox cages at 22 C in a 12/12-hour light dark cycle.
Body composition was measured prior to and after drug treatment using NMR (Echo Medical Systems, Houston, Tex.). For body composition measurements, rats were briefly placed (˜1 min) in a well-ventilated plexiglass tube that was then inserted into a specialized rodent NMR machine. Rats were scanned prior to pump implantation and on the final day of the experiment. This enabled the calculation of changes in actual grams of fat and dry lean tissue (e.g., grams of body fat after treatment−grams of body fat at baseline=change in grams of body fat) and changes in % body composition for fat and dry lean tissue (e.g., % body fat after treatment−% body fat at baseline=change in % body fat).

[5] = 24-week randomized, double-blind, active-drug-controlled study of pramlintide and metreleptin in overweight and obese subjects (Example 8); format: in vivo, human
Description: To evaluate inter alia the safety, tolerability and effect of the combination of an amylin agonist (pramlintide) and a leptin (metreleptin) on changes in body weight, a 24-week, randomized, double-blind, active-drug-controlled, multicenter study was conducted under USFDA approved protocols. Secondary objectives of the study were the determination of the pharmacokinetics of pramlintide and leptin, waist circumference, rate of change in body weight, and patient reported outcomes including for example without limitation perception of well-being related to weight change and mood. The study enrolled overweight and obese subjects with defined BMI ([…]), with enrollment statistics as provided in Table 2. […] Subjects treated with pramlintide/metreleptin lost an average of 25 pounds from the start of the 24-week study compared with an average of 17 pounds for subjects treated with pramlintide alone.
In an initial lead-in phase, all subjects received dietary instructions and treatment with pramlintide at 180 mcg BID for two weeks, followed by pramlintide at 360 mcg BID for two weeks. Subjects who completed the 4-week lead-in period and who lost 2-8 percent body weight during this period were eligible to continue the study. The term “enrolled” (Table 2) refers to subjects (N=177) receiving at least one dose of pramlintide during the lead-in period. The term “non-randomized” refers to subjects not continuing in the study past the lead-in period. The term “evaluable” refers to subjects who completed Visit 9 (Week 16) study procedures and adequately complied with the study protocol.
After the 4-week lead-in period, for the remaining 20 weeks of the study the subjects were randomized in a 2:2:1 ratio to one of three groups with BID treatment of 1) pramlintide 360 mcg/metreleptin 5 mg (“Leptin+Pramlintide”); 2) pramlintide 360 mcg/placebo (“Pramlintide”); or 3) metreleptin 5 mg/placebo (“Leptin”).

[6] = 4-week pramlintide lead-in, arm of later randomization

B1: murine leptin (protein, UniProt P41160 22-167, looked up)
Leptin: VPIQKVQDDTKTLIKTIVTRINDISHTQSVSAKQRVTGLDFIPGLHPILSLSKMDQTLAVYQQVLTSLPSQNVLQIANDLENLRDLLHLLAFSKSCSLPQTSGLQKPESLDGVLEASLYSTEVVALSRLQGSLQDILQQLDVSPEC
cumulative food intake ([1]; FIG. 1): no effect
total changes in body weight ([1]; FIG. 2): no effect
body weight ([2]; DIO prone rats, same leptin dose): ineffective
body weight ([2]; normal, lean HSD rats, leptin 500 μg/kg/day s.c. mini-pump, 14 days): significant and sustained reduction in body weight
decrease in body weight relative to vehicle control, pair-fed [3]: ~6%
vehicle-corrected decrease in percent body weight [4]: 2%
rate of change in body weight, early rate ([5]; 0-12 weeks, evaluable population, FIG. 24): −0.19±0.05 kg/week
Mean Change in Body Weight ([5]; 4-week lead-in period in which all subjects received pramlintide (180 then 360 mcg BID), arm of later randomization): -3.97 kg
% Weight Loss During Lead-in <5% (share of subjects) [5, 6]: 78%
% Weight Loss During Lead-in ≧5% (share of subjects) [5, 6]: 22%
rate of change in body weight, late rate ([5]; 12-20 weeks, evaluable population, FIG. 24): −0.01±0.08 kg/week
